{"source": "patent CN115925884A", "target": "EBV gB重组蛋白 (recombinant EB virus gB protein with C-terminal 6xHis tag) (EB病毒 (Epstein-Barr virus)) (UniProt P0C762)", "experiment": "BLI, biotinylated gB on SA biosensor, control antibody in solution", "data": [{"substance": "对照抗体AMMO5 (anti-EBV gB recombinant antibody, clone AMMO5)", "values": [{"measurement": "Kd", "result": 0.302, "unit": "nM"}]}]}
